# From US20120021995A1 (published 2012)
# T1: recombinant human TRAIL R1 (DR4)/Fc chimera (human, UniProt O00220 24-239)
# T1 construct: bought (R&D Systems); not shown: Fc of the bought chimera (R&D Systems)
# T1 sequence: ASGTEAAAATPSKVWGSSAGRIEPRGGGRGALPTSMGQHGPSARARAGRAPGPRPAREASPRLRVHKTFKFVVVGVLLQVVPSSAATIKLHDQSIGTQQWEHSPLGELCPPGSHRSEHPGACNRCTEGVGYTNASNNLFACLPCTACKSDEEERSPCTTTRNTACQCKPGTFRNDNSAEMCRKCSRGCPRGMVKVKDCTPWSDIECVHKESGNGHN
# T2: DR4 (TRAIL-R1) on cancer cells (human, UniProt O00220 24-468)
# T2 sequence: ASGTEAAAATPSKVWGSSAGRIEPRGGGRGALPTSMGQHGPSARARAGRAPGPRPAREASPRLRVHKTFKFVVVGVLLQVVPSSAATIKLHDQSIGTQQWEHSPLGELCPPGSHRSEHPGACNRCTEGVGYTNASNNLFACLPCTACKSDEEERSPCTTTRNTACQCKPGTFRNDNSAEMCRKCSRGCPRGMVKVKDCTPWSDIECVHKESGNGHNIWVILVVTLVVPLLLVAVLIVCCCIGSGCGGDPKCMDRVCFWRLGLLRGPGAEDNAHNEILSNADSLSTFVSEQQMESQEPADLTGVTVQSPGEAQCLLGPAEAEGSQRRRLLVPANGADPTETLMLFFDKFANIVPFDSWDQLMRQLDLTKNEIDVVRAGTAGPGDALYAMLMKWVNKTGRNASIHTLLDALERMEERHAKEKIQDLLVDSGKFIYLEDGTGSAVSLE
# Target: T1, recombinant human TRAIL R1 (DR4)/Fc …
# Experiment: phage ELISA on DR4/Fc
# Method: The remaining overnight culture was used to make a master stock plate by adding 100 μL of 50% glycerol to each well and storing at −80° C. The replica culture plate was grown at 37° C. with shaking at 250 rpm for approximately 2 hrs until the OD₆₀₀ was 0.5-0.7. The wells were then infected with K07 helper phage to 5×10⁹ pfu/mL mixed and incubated at 37° C. for 30 minutes without shaking, then incubated an addition 30 minutes at 37° C. with shaking at 250 rpm. The cultures were then spun down at 2500 rpm and 4° C. for 20 minutes. The supernatants were removed from the wells and the bacterial cell pellets were re-suspended in 500 μL of 2xYT containing 50 μg/mL carbenicillin and 50 μg/mL kanamycin. An air-permeable membrane was placed on the culture block and cells were grown overnight at room temperature with shaking at 250 rpm.
# On day 3, cultures were spun down and supernatants containing the phage were blocked with 3% milk/PBS for 1 hr at room temperature. An initial Phage ELISA was performed using 75-100 ng of antigen bound per well. Non-specific binding was measured using 75-100 ng of human IgG1 Fc per well. DR4/Fc antigen (R&D Systems)-coated wells and IgG Fc coated wells were prepared fresh the night before by binding the above amount of antigen diluted in 100 μL of PBS per well. Antigen plates were incubated overnight at 4° C. then for 1 hour at 37° C., washed twice with PBS/0.05% Tween 20 and twice with PBS, and then blocked with 3% milk/PBS for 1 hr at 37° C. prior to the ELISA. Blocked phage were bound to blocked antigen-bound plates for 1 hr then washed twice with 0.05% Tween 20/PBS and then twice more with PBS. A HRP-conjugated anti-M13 secondary antibody diluted in 3% milk/PBS was then applied, with binding for 1 hr and washing as described above. The ELISA signal was developed using 90 μL TMB substrate mix and then stopped with 90 μL 0.2 M sulfuric acid, then ELISA plates were read at 450 nm. […] Secondary ELISA screens were performed similarly to the protocol detailed above.
row,Binder,binding result
1,"064-101.4B10 (designed binder, on phage) ALQTVCLKGTKVHMKCFLAFTQTKTFHEASEDCISRGGTLSTPQTGSENDALYEYLRQSVGNEAEIWLGLNQWVAFWSWVDMTGARIAYKNWETEITAQPDGGSAVSGENCAVLSGAANGKWFDKRCRDQLPYICQFGIV",binds
2,"064-101.4H1 (designed binder, on phage) ALQTVCLKGTKVHMKCFLAFTQTKTFHEASEDCISRGGTLSTPQTGSENDALYEYLRQSVGNEAEIWLGLNPYTSWGLWVDMTGARIAYKNWETEITAQPDGGVGGRGENCAVLSGAANGKWFDKRCRDQLPYICQFGIV",binds

# Target: T1, recombinant human TRAIL R1 (DR4)/Fc …
# Experiment: phage ELISA on DR4/Fc
# Remark: another data set of the same source
row,Binder,binding result
1,"119p83P1C12 (designed binder, on phage) ALQTVCLKGTKVHMKCFLAFTQTKTFHEASEDCISRGGTLSTPQTGSENDALYEYLRQSVGNEAEIWLGLNGWLEGVGWVDMTGARIAYKNWNSNVVLQPDGGWPFSNENCAVLSGAANGKWFDKRCRDQLPYICQFGIV",binds
2,"119p83P1A3 (designed binder, on phage) ALQTVCLKGTKVHMKCFLAFTQTKTFHEASEDCISRGGTLSTPQTGSENDALYEYLRQSVGNEAEIWLGLNGWLEGVGWVDMTGARIAYKNWVAKDHEQPDGGWPFSNENCAVLSGAANGKWFDKRCRDQLPYICQFGIV",binds
3,"119p83P1F12 (designed binder, on phage) ALQTVCLKGTKVHMKCFLAFTQTKTFHEASEDCISRGGTLSTPQTGSENDALYEYLRQSVGNEAEIWLGLNGWLEGVGWVDMTGARIAYKNWFIPADRQPDGGWPFSNENCAVLSGAANGKWFDKRCRDQLPYICQFGIV",binds
4,"119p83P1A12 (designed binder, on phage) ALQTVCLKGTKVHMKCFLAFTQTKTFHEASEDCISRGGTLSTPQTGSENDALYEYLRQSVGNEAEIWLGLNGWLEGVGWVDMTGARIAYKNWQPGLWRQPDGGWPFSNENCAVLSGAANGKWFDKRCRDQLPYICQFGIV",binds
5,"119p83P1A9 (designed binder, on phage) ALQTVCLKGTKVHMKCFLAFTQTKTFHEASEDCISRGGTLSTPQTGSENDALYEYLRQSVGNEAEIWLGLNGWLEGVGWVDMTGARIAYKNWVYRPGMQPDGGWPFSNENCAVLSGAANGKWFDKRCRDQLPYICQFGIV",binds
6,"119p83P1D10 (designed binder, on phage) ALQTVCLKGTKVHMKCFLAFTQTKTFHEASEDCISRGGTLSTPQTGSENDALYEYLRQSVGNEAEIWLGLNGWLEGVGWVDMTGARIAYKNWGRRRNLQPDGGWPFSNENCAVLSGAANGKWFDKRCRDQLPYICQFGIV",binds
7,"119p83P1A7′ (designed binder, on phage) ALQTVCLKGTKVHMKCFLAFTQTKTFHEASEDCISRGGTLSTPQTGSENDALYEYLRQSVGNEAEIWLGLNGWLEGVGWVDMTGARIAYKNWYSWPKLQPDGGWPFSNENCAVLSGAANGKWFDKRCRDQLPYICQFGIV",binds
8,"119p83P1C9 (designed binder, on phage) ALQTVCLKGTKVHMKCFLAFTQTKTFHEASEDCISRGGTLSTPQTGSENDALYEYLRQSVGNEAEIWLGLNGWLEGVGWVDMTGARIAYKNWGGEVLLQPDGGWPFSNENCAVLSGAANGKWFDKRCRDQLPYICQFGIV",binds
9,"119p83P1C11 (designed binder, on phage) ALQTVCLKGTKVHMKCFLAFTQTKTFHEASEDCISRGGTLSTPQTGSENDALYEYLRQSVGNEAEIWLGLNGWLEGVGWVDMTGARIAYKNWAMHYYWQPDGGWPFSNENCAVLSGAANGKWFDKRCRDQLPYICQFGIV",binds
10,"119p83P1D11 (designed binder, on phage) ALQTVCLKGTKVHMKCFLAFTQTKTFHEASEDCISRGGTLSTPQTGSENDALYEYLRQSVGNEAEIWLGLNGWLEGVGWVDMTGARIAYKNWQVHARSQPDGGWPFSNENCAVLSGAANGKWFDKRCRDQLPYICQFGIV",binds
11,"119p83P1A11 (designed binder, on phage) ALQTVCLKGTKVHMKCFLAFTQTKTFHEASEDCISRGGTLSTPQTGSENDALYEYLRQSVGNEAEIWLGLNGWLEGVGWVDMTGARIAYKNWDAPVSGQPDGGWPFSNENCAVLSGAANGKWFDKRCRDQLPYICQFGIV",binds

# Target: T2, DR4 (TRAIL-R1) on cancer cells
# Experiment: cell-based or functional assay
Binder,Colo205 % killing (% of TRAIL activity) [%],H2122 % killing (% of TRAIL activity) [%],ST486 % killing (% of TRAIL activity) [%]
71p88P1A1 (designed binder) EPPTQKPKKIVNAKKDVVNTKMFEELKSRLDTLAQEVALLKEQQALQTVCLKGTKVHMKCFLAFTQTKTFHEASEDCISRGGTLSTPQTGSENDALYEYLRQSVGNEAEIWLGLNGWMDGSGWVDMTGARIAYKNWETEITAQPDGGRLWRWENCAVLSGAANGKWFDKRCRDQLPYICQFGIV,-1,-2,57
71p88P1G11 (designed binder) EPPTQKPKKIVNAKKDVVNTKMFEELKSRLDTLAQEVALLKEQQALQTVCLKGTKVHMKCFLAFTQTKTFHEASEDCISRGGTLSTPQTGSENDALYEYLRQSVGNEAEIWLGLNGWMAGVGWVDMTGARIAYKNWETEITAQPDGGPGLRWENCAVLSGAANGKWFDKRCRDQLPYICQFGIV,1,4,45
71p88P1B4 (designed binder) EPPTQKPKKIVNAKKDVVNTKMFEELKSRLDTLAQEVALLKEQQALQTVCLKGTKVHMKCFLAFTQTKTFHEASEDCISRGGTLSTPQTGSENDALYEYLRQSVGNEAEIWLGLNGWLEGYGWVDMTGARIAYKNWETEITAQPDGGAERAWENCAVLSGAANGKWFDKRCRDQLPYICQFGIV,-25,-5,-15
71p88P1B12 (designed binder) EPPTQKPKKIVNAKKDVVNTKMFEELKSRLDTLAQEVALLKEQQALQTVCLKGTKVHMKCFLAFTQTKTFHEASEDCISRGGTLSTPQTGSENDALYEYLRQSVGNEAEIWLGLNGWIEGAGWVDMTGARIAYKNWETEITAQPDGGWRSRWENCAVLSGAANGKWFDKRCRDQLPYICQFGIV,-10,-1,26
71p88P1B9 (designed binder) EPPTQKPKKIVNAKKDVVNTKMFEELKSRLDTLAQEVALLKEQQALQTVCLKGTKVHMKCFLAFTQTKTFHEASEDCISRGGTLSTPQTGSENDALYEYLRQSVGNEAEIWLGLNGWLAGSGWVDMTGARIAYKNWETEITAQPDGGGGWPWENCAVLSGAANGKWFDKRCRDQLPYICQFGIV,7,3,34
71p88P1D9 (designed binder) EPPTQKPKKIVNAKKDVVNTKMFEELKSRLDTLAQEVALLKEQQALQTVCLKGTKVHMKCFLAFTQTKTFHEASEDCISRGGTLSTPQTGSENDALYEYLRQSVGNEAEIWLGLNGWVAGVGWVDMTGARIAYKNWETEITAQPDGGGGWRWENCAVLSGAANGKWFDKRCRDQLPYICQFGIV,-21,-3,28
